Source: publication PMC3556364
Like-named read-outs stand apart in the source and are kept apart here.

Legend:
[1] = molecular target: Azotobacter vinelandii ^NifIscA (Azotobacter vinelandii); test: SEC
[2] = molecular target: Azotobacter vinelandii ^NifIscA (Azotobacter vinelandii); test: SEC; remark: listed apart in the source

stoichiometry N [1]: 2
stoichiometry N [2]: 2
Substance: Azotobacter vinelandii ^NifIscA (natural protein)
